These results are taken from PMC10397247.

Test in all cases: two-hybrid library CCNG1;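 further: natural log of median RNA to DNA barcode read ratio; higher means stronger binding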
The target of one assay is T1, P7mS.
T1 chain: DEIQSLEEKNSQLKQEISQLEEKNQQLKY

In another assay the target is T2, P8mS.
T2 chain: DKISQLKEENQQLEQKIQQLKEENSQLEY

Another assay has as its target T3, P9mS.
T3 chain: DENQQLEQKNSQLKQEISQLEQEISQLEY

Another assay addresses T4, 4H3277-bA.
T4 chain: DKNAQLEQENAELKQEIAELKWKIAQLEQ

A further assay concerns the target T5, 4H741-bA.
T5 chain: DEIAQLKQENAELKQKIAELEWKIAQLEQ

In another assay the target is T6, 4H3057-bA.
T6 chain: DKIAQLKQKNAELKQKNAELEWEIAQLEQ

The target in the next assay is T7, 4H348-bA.
T7 chain: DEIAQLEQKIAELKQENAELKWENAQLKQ

A further assay deals with T8, 4H2839-bA.
T8 chain: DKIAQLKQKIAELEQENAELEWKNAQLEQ

A further assay concerns the target T9, 4H477-bA.
T9 chain: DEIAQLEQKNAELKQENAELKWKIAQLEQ

The next assay deals with T10, 4H2503-bA.
T10 chain: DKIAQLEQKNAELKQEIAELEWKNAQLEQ

Another assay concerns the target T11, 4H3162-bH.
T11 chain: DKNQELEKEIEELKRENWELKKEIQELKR

A further assay concerns the target T12, 4H492-bA.
T12 chain: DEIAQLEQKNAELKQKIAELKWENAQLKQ

The target in the next assay is T13, 4H2717-bA.
T13 chain: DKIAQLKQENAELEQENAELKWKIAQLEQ

The next assay has as its target T14, 4H2692-bA.
T14 chain: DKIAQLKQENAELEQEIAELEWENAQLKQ

A further assay concerns the target T15, 4H2915-bA.
T15 chain: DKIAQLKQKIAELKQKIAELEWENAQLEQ

A further assay has as its target T16, 4H687-bA.
T16 chain: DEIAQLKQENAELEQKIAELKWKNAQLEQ

For another assay, the target named is T17, 4H40-bA.
T17 chain: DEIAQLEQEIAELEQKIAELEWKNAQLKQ

For another assay, the target named is T18, 4H319-bA.
T18 chain: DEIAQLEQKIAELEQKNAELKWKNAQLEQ

In a further assay the target is T19, 4H2588-bA.
T19 chain: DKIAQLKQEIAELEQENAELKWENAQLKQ

Another assay concerns the target T20, O6-bN.
T20 chain: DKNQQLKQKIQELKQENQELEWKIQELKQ

The target of another assay is T21, O8-bN.
T21 chain: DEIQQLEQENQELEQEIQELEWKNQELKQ

A further assay deals with T22, O2-bN.
T22 chain: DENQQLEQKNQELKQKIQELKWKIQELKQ

The target in another assay is T23, O4-bN.
T23 chain: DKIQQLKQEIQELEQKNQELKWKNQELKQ

Another assay has as its target T24, O7-bN.
T24 chain: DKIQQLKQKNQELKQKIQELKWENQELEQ

The target of the next assay is T25, O16-bN.
T25 chain: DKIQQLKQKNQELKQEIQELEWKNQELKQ

In a further assay the target is T26, O5-bN.
T26 chain: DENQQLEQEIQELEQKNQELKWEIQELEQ

Another assay deals with T27, O9-bN.
T27 chain: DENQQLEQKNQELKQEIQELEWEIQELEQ

The target of a further assay is T28, O3-bN.
T28 chain: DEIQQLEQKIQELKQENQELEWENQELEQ

For the next assay, the target named is T29, O15-bN.
T29 chain: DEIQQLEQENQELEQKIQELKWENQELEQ

Another assay concerns the target T30, 4H338-bA.
T30 chain: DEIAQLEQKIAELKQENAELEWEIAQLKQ

The target in another assay is T31, 4H3427-bA.
T31 chain: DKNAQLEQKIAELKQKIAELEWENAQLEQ

For the next assay, the target named is T32, 4H908-bA.
T32 chain: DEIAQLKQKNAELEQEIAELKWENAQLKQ

For a further assay, the target named is T33, 4H717-bA.
T33 chain: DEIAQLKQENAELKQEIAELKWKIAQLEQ

In a further assay the target is T34, 4H918-bA.
T34 chain: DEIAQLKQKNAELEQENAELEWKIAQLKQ

The next assay deals with T35, 4H72-bA.
T35 chain: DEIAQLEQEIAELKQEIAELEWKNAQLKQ

The next assay addresses T36, 4H4001-bA.
T36 chain: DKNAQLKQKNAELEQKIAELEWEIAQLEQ

In a further assay the target is T37, 4H3782-bA.
T37 chain: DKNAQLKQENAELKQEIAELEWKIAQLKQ

In the next assay the target is T38, 4H797-bA.
T38 chain: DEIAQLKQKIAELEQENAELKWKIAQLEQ

A further assay deals with T39, 4H883-bA.
T39 chain: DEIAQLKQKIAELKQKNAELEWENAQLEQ

The target in the next assay is T40, 4H953-bA.
T40 chain: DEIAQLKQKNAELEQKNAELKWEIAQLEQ

The next assay has as its target T41, 4H3855-bA.
T41 chain: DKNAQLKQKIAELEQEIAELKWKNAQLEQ

The next assay deals with T42, 4H967-bA.
T42 chain: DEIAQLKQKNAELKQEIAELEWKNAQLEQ

The target of another assay is T43, O15-bH.
T43 chain: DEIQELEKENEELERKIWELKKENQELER

The target in the next assay is T44, 4H754-bA.
T44 chain: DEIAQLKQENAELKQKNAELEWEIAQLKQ

In a further assay the target is T45, 4H454-bA.
T45 chain: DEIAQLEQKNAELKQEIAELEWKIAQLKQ

A further assay concerns the target T46, 4H568-bA.
T46 chain: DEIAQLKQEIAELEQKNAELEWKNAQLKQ

The target in a further assay is T47, 4H607-bA.
T47 chain: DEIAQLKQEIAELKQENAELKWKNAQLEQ

B1: P7mS (peptide)
chain: DEIQSLEEKNSQLKQEISQLEEKNQQLKY
With B1, the interaction score with P7mS is -0.531; in the assay with P8mS, 1.28; with P9mS, 0.076.

B2: 4H2503-bA (peptide)
chain: DKIAQLEQKNAELKQEIAELEWKNAQLEQ
With B2, the interaction score was -0.659 with 4H3277-bA; -0.407 with 4H741-bA; -0.42 in the assay with 4H3057-bA; -1.13 in the assay with 4H348-bA; -0.791 in the assay with 4H2839-bA; -0.816 in the assay with 4H477-bA. Besides, the interaction score in the assay with 4H2503-bA was -0.591; in the assay with 4H3162-bH, -2.22; with 4H492-bA it was -0.351; with 4H2717-bA, -0.684; with 4H2692-bA, 0.466; with 4H2915-bA, -0.804. The interaction score with 4H687-bA is 1.12; in the assay with 4H40-bA it was -0.475; with 4H319-bA it was -1.63; with 4H2588-bA, -0.447.

B3: O13-bN (peptide)
chain: DKNQQLKQKIQELKQKNQELKWEIQELEQ
As to B3, the interaction score in the assay with O6-bN was -0.733; with O8-bN, -1.07; with O2-bN, -1.79; in the assay with O4-bN, -2.32; with O7-bN, -1.39; with O16-bN, -1.23. The interaction score in the assay with O5-bN was -2.42; in the assay with O9-bN it was -1.61; in the assay with O3-bN, -0.827; with O15-bN it was -0.801.

B4: 4H338-bA (peptide)
chain: DEIAQLEQKIAELKQENAELEWEIAQLKQ
As to B4, the interaction score in the assay with 4H338-bA is 0.363; with 4H3427-bA, 0.0707; with 4H908-bA, -0.695; with 4H717-bA, -0.573; in the assay with 4H918-bA, -1.39; with 4H72-bA, -0.139. The interaction score with 4H4001-bA is 0.217; with 4H3782-bA, -0.133; in the assay with 4H797-bA, -0.317; with 4H883-bA, -0.973; in the assay with 4H953-bA, -0.0976; with 4H3855-bA it was -0.445. Also, the interaction score in the assay with 4H967-bA is 0.424; with 4H687-bA, -1.18; in the assay with O15-bH it was 0.0935; with 4H754-bA, -0.95; with 4H454-bA, 2.01; with 4H568-bA it was 0.415. The interaction score in the assay with 4H607-bA is -0.707.

B5: O15-bN (peptide)
chain: DEIQQLEQENQELEQKIQELKWENQELEQ
Turning to B5, the interaction score with O6-bN is -0.314; in the assay with O8-bN, -1.62; with O2-bN, -1.5; in the assay with O4-bN it was 0.275; with O7-bN it was 1.29; in the assay with O16-bN, 1.92. In addition, the interaction score with O5-bN was -0.822; in the assay with O9-bN it was -0.491; with O3-bN it was -0.189; in the assay with O15-bN, -0.195.

B6: O14-bN (peptide)
chain: DENQQLEQEIQELEQENQELEWKIQELKQ
With B6, the interaction score with O6-bN is 0.642; with O8-bN, -1.68; with O2-bN, 0.0465; in the assay with O4-bN it was -1.01; with O7-bN it was 1.78; with O16-bN it was 1.69. For the same molecule, the interaction score with O5-bN is -0.308; with O9-bN it was -0.149; with O3-bN, 0.477; in the assay with O15-bN it was -0.117.
